Test results from patent US20180155451A1 (published 2018).

T1: FcγRIIb (human, UniProt P31994 43-217)
T1 construct: extracellular domain; also called 2b; FcgRIIb
T1 sequence (looked up): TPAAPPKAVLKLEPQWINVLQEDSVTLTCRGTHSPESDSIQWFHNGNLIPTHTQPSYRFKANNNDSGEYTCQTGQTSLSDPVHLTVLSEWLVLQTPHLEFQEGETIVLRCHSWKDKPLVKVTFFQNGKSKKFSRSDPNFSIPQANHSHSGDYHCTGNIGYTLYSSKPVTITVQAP


Target: T1, FcγRIIb
Assay: SPR (Biacore), binding relative to GpH7-B3/GpL16-k0 = 100

Ho/Con_2b	Binder
94.4 % of control	GpH7-B3 variant T335_20W/GpL16-k0 (antibody, human IgG1, kappa, also called Ho Ab T335_20W) heavy: not shown light: DIVMTQSPLSLPVTPGEPASISCQASESLVHSNRNTYLHWYLQKPGQSPQLLIYKVSNRFSGVPDRFSGSGSGTDFTLKISRVEAEDVGVYYCSQNTHVPPTFGQGTKVEIERTVAAPSVFIFPPSDEQLKSGTASVVCLLNNFYPREAKVQWKVDNALQSGNSQESVTEQDSKDSTYSLSSTLTLSKADYEKHKVYACEVTHQGLSSPVTKSFNRGEC
103 % of control	GpH7-B3 variant Y296_20W/GpL16-k0 (antibody, human IgG1, kappa, also called Ho Ab Y296_20W) heavy: not shown light: DIVMTQSPLSLPVTPGEPASISCQASESLVHSNRNTYLHWYLQKPGQSPQLLIYKVSNRFSGVPDRFSGSGSGTDFTLKISRVEAEDVGVYYCSQNTHVPPTFGQGTKVEIERTVAAPSVFIFPPSDEQLKSGTASVVCLLNNFYPREAKVQWKVDNALQSGNSQESVTEQDSKDSTYSLSSTLTLSKADYEKHKVYACEVTHQGLSSPVTKSFNRGEC
231 % of control	GpH7-B3 variant V266_06M/GpL16-k0 (antibody, human IgG1, kappa, also called Ho Ab V266_06M) heavy: not shown light: DIVMTQSPLSLPVTPGEPASISCQASESLVHSNRNTYLHWYLQKPGQSPQLLIYKVSNRFSGVPDRFSGSGSGTDFTLKISRVEAEDVGVYYCSQNTHVPPTFGQGTKVEIERTVAAPSVFIFPPSDEQLKSGTASVVCLLNNFYPREAKVQWKVDNALQSGNSQESVTEQDSKDSTYSLSSTLTLSKADYEKHKVYACEVTHQGLSSPVTKSFNRGEC

Target: T1, FcγRIIb
Assay: SPR (Biacore), binding relative to GpH7-A5/GpH7-B3/GpL16-k0 = 100
Procedure: Analysis of interaction between objective antibody and the FcγR was carried out using Biacore T100 (GE Healthcare). HBS-EP+ (GE Healthcare) was used as the running buffer, and the measurement temperature was set to 25° C. Chips produced by immobilizing the antigen peptide by the amine coupling method to a Series S Sencor Chip CM5 (GE Healthcare), or alternatively, chips produced by allowing preliminarily biotinylated antigen peptides to interact with and immobilize onto a Series S Sensor Chip SA (certified) (GE Healthcare) were used. Antibodies of interest were captured onto an antigen peptide-immobilized chip, and allowed to interact to each FcγR diluted with running buffer. To regenerate and repeatedly use the chip, the antibodies captured on the chip were washed off by reacting 10 mM glycine-HCl, pH 1.5.
The FcγR-binding activity of each antibody was assessed primarily using as an indicator the FcγR-binding activity and dissociation constant for FcγR.

He/Con_2b	Binder
108 % of control	GpH7-A5/GpH7-B3 variant G237_19Q/GpL16-k0 (antibody, human IgG1, kappa, also called He Ab G237_19Q) heavy 1: not shown heavy 2: not shown light: DIVMTQSPLSLPVTPGEPASISCQASESLVHSNRNTYLHWYLQKPGQSPQLLIYKVSNRFSGVPDRFSGSGSGTDFTLKISRVEAEDVGVYYCSQNTHVPPTFGQGTKVEIERTVAAPSVFIFPPSDEQLKSGTASVVCLLNNFYPREAKVQWKVDNALQSGNSQESVTEQDSKDSTYSLSSTLTLSKADYEKHKVYACEVTHQGLSSPVTKSFNRGEC
193 % of control	GpH7-A5/GpH7-B3 variant G237_20W/GpL16-k0 (antibody, human IgG1, kappa, also called He Ab G237_20W) heavy 1: not shown heavy 2: not shown light: DIVMTQSPLSLPVTPGEPASISCQASESLVHSNRNTYLHWYLQKPGQSPQLLIYKVSNRFSGVPDRFSGSGSGTDFTLKISRVEAEDVGVYYCSQNTHVPPTFGQGTKVEIERTVAAPSVFIFPPSDEQLKSGTASVVCLLNNFYPREAKVQWKVDNALQSGNSQESVTEQDSKDSTYSLSSTLTLSKADYEKHKVYACEVTHQGLSSPVTKSFNRGEC
116 % of control	GpH7-A5/GpH7-B3 variant H268_05P/GpL16-k0 (antibody, human IgG1, kappa, also called He Ab H268_05P) heavy 1: not shown heavy 2: not shown light: DIVMTQSPLSLPVTPGEPASISCQASESLVHSNRNTYLHWYLQKPGQSPQLLIYKVSNRFSGVPDRFSGSGSGTDFTLKISRVEAEDVGVYYCSQNTHVPPTFGQGTKVEIERTVAAPSVFIFPPSDEQLKSGTASVVCLLNNFYPREAKVQWKVDNALQSGNSQESVTEQDSKDSTYSLSSTLTLSKADYEKHKVYACEVTHQGLSSPVTKSFNRGEC
114 % of control	GpH7-A5/GpH7-B3 variant H268_03V/GpL16-k0 (antibody, human IgG1, kappa, also called He Ab H268_03V) heavy 1: not shown heavy 2: not shown light: DIVMTQSPLSLPVTPGEPASISCQASESLVHSNRNTYLHWYLQKPGQSPQLLIYKVSNRFSGVPDRFSGSGSGTDFTLKISRVEAEDVGVYYCSQNTHVPPTFGQGTKVEIERTVAAPSVFIFPPSDEQLKSGTASVVCLLNNFYPREAKVQWKVDNALQSGNSQESVTEQDSKDSTYSLSSTLTLSKADYEKHKVYACEVTHQGLSSPVTKSFNRGEC

Second part, the binder before the results:

Binder	He/Con_2b
GpH7-A5/GpH7-B3 variant G237_02A/GpL16-k0 (antibody, human IgG1, kappa, also called He Ab G237_02A) heavy 1: not shown heavy 2: not shown light: DIVMTQSPLSLPVTPGEPASISCQASESLVHSNRNTYLHWYLQKPGQSPQLLIYKVSNRFSGVPDRFSGSGSGTDFTLKISRVEAEDVGVYYCSQNTHVPPTFGQGTKVEIERTVAAPSVFIFPPSDEQLKSGTASVVCLLNNFYPREAKVQWKVDNALQSGNSQESVTEQDSKDSTYSLSSTLTLSKADYEKHKVYACEVTHQGLSSPVTKSFNRGEC	124 % of control
GpH7-A5/GpH7-B3 variant G237_10E/GpL16-k0 (antibody, human IgG1, kappa, also called He Ab G237_10E) heavy 1: not shown heavy 2: not shown light: DIVMTQSPLSLPVTPGEPASISCQASESLVHSNRNTYLHWYLQKPGQSPQLLIYKVSNRFSGVPDRFSGSGSGTDFTLKISRVEAEDVGVYYCSQNTHVPPTFGQGTKVEIERTVAAPSVFIFPPSDEQLKSGTASVVCLLNNFYPREAKVQWKVDNALQSGNSQESVTEQDSKDSTYSLSSTLTLSKADYEKHKVYACEVTHQGLSSPVTKSFNRGEC	114 % of control
GpH7-A5/GpH7-B3 variant G237_18N/GpL16-k0 (antibody, human IgG1, kappa, also called He Ab G237_18N) heavy 1: not shown heavy 2: not shown light: DIVMTQSPLSLPVTPGEPASISCQASESLVHSNRNTYLHWYLQKPGQSPQLLIYKVSNRFSGVPDRFSGSGSGTDFTLKISRVEAEDVGVYYCSQNTHVPPTFGQGTKVEIERTVAAPSVFIFPPSDEQLKSGTASVVCLLNNFYPREAKVQWKVDNALQSGNSQESVTEQDSKDSTYSLSSTLTLSKADYEKHKVYACEVTHQGLSSPVTKSFNRGEC	180 % of control
GpH7-A5/GpH7-B3 variant G237_06M/GpL16-k0 (antibody, human IgG1, kappa, also called He Ab G237_06M) heavy 1: not shown heavy 2: not shown light: DIVMTQSPLSLPVTPGEPASISCQASESLVHSNRNTYLHWYLQKPGQSPQLLIYKVSNRFSGVPDRFSGSGSGTDFTLKISRVEAEDVGVYYCSQNTHVPPTFGQGTKVEIERTVAAPSVFIFPPSDEQLKSGTASVVCLLNNFYPREAKVQWKVDNALQSGNSQESVTEQDSKDSTYSLSSTLTLSKADYEKHKVYACEVTHQGLSSPVTKSFNRGEC	130 % of control
GpH7-A5/GpH7-B3 variant A327_07I/GpL16-k0 (antibody, human IgG1, kappa, also called He Ab A327_07I) heavy 1: not shown heavy 2: not shown light: DIVMTQSPLSLPVTPGEPASISCQASESLVHSNRNTYLHWYLQKPGQSPQLLIYKVSNRFSGVPDRFSGSGSGTDFTLKISRVEAEDVGVYYCSQNTHVPPTFGQGTKVEIERTVAAPSVFIFPPSDEQLKSGTASVVCLLNNFYPREAKVQWKVDNALQSGNSQESVTEQDSKDSTYSLSSTLTLSKADYEKHKVYACEVTHQGLSSPVTKSFNRGEC	127 % of control
GpH7-A5/GpH7-B3 variant A327_18N/GpL16-k0 (antibody, human IgG1, kappa, also called He Ab A327_18N) heavy 1: not shown heavy 2: not shown light: DIVMTQSPLSLPVTPGEPASISCQASESLVHSNRNTYLHWYLQKPGQSPQLLIYKVSNRFSGVPDRFSGSGSGTDFTLKISRVEAEDVGVYYCSQNTHVPPTFGQGTKVEIERTVAAPSVFIFPPSDEQLKSGTASVVCLLNNFYPREAKVQWKVDNALQSGNSQESVTEQDSKDSTYSLSSTLTLSKADYEKHKVYACEVTHQGLSSPVTKSFNRGEC	113 % of control
GpH7-A5/GpH7-B3 variant G237_08L/GpL16-k0 (antibody, human IgG1, kappa, also called He Ab G237_08L) heavy 1: not shown heavy 2: not shown light: DIVMTQSPLSLPVTPGEPASISCQASESLVHSNRNTYLHWYLQKPGQSPQLLIYKVSNRFSGVPDRFSGSGSGTDFTLKISRVEAEDVGVYYCSQNTHVPPTFGQGTKVEIERTVAAPSVFIFPPSDEQLKSGTASVVCLLNNFYPREAKVQWKVDNALQSGNSQESVTEQDSKDSTYSLSSTLTLSKADYEKHKVYACEVTHQGLSSPVTKSFNRGEC	148 % of control
GpH7-A5/GpH7-B3 variant G237_15Y/GpL16-k0 (antibody, human IgG1, kappa, also called He Ab G237_15Y) heavy 1: not shown heavy 2: not shown light: DIVMTQSPLSLPVTPGEPASISCQASESLVHSNRNTYLHWYLQKPGQSPQLLIYKVSNRFSGVPDRFSGSGSGTDFTLKISRVEAEDVGVYYCSQNTHVPPTFGQGTKVEIERTVAAPSVFIFPPSDEQLKSGTASVVCLLNNFYPREAKVQWKVDNALQSGNSQESVTEQDSKDSTYSLSSTLTLSKADYEKHKVYACEVTHQGLSSPVTKSFNRGEC	152 % of control
GpH7-A5/GpH7-B3 variant A330_01G/GpL16-k0 (antibody, human IgG1, kappa, also called He Ab A330_01G) heavy 1: not shown heavy 2: not shown light: DIVMTQSPLSLPVTPGEPASISCQASESLVHSNRNTYLHWYLQKPGQSPQLLIYKVSNRFSGVPDRFSGSGSGTDFTLKISRVEAEDVGVYYCSQNTHVPPTFGQGTKVEIERTVAAPSVFIFPPSDEQLKSGTASVVCLLNNFYPREAKVQWKVDNALQSGNSQESVTEQDSKDSTYSLSSTLTLSKADYEKHKVYACEVTHQGLSSPVTKSFNRGEC	104 % of control
GpH7-A5/GpH7-B3 variant G237_09D/GpL16-k0 (antibody, human IgG1, kappa, also called He Ab G237_09D) heavy 1: not shown heavy 2: not shown light: DIVMTQSPLSLPVTPGEPASISCQASESLVHSNRNTYLHWYLQKPGQSPQLLIYKVSNRFSGVPDRFSGSGSGTDFTLKISRVEAEDVGVYYCSQNTHVPPTFGQGTKVEIERTVAAPSVFIFPPSDEQLKSGTASVVCLLNNFYPREAKVQWKVDNALQSGNSQESVTEQDSKDSTYSLSSTLTLSKADYEKHKVYACEVTHQGLSSPVTKSFNRGEC	223 % of control
GpH7-A5/GpH7-B3 variant G237_13S/GpL16-k0 (antibody, human IgG1, kappa, also called He Ab G237_13S) heavy 1: not shown heavy 2: not shown light: DIVMTQSPLSLPVTPGEPASISCQASESLVHSNRNTYLHWYLQKPGQSPQLLIYKVSNRFSGVPDRFSGSGSGTDFTLKISRVEAEDVGVYYCSQNTHVPPTFGQGTKVEIERTVAAPSVFIFPPSDEQLKSGTASVVCLLNNFYPREAKVQWKVDNALQSGNSQESVTEQDSKDSTYSLSSTLTLSKADYEKHKVYACEVTHQGLSSPVTKSFNRGEC	111 % of control
GpH7-A5/GpH7-B3 variant A330_05P/GpL16-k0 (antibody, human IgG1, kappa, also called He Ab A330_05P) heavy 1: not shown heavy 2: not shown light: DIVMTQSPLSLPVTPGEPASISCQASESLVHSNRNTYLHWYLQKPGQSPQLLIYKVSNRFSGVPDRFSGSGSGTDFTLKISRVEAEDVGVYYCSQNTHVPPTFGQGTKVEIERTVAAPSVFIFPPSDEQLKSGTASVVCLLNNFYPREAKVQWKVDNALQSGNSQESVTEQDSKDSTYSLSSTLTLSKADYEKHKVYACEVTHQGLSSPVTKSFNRGEC	137 % of control
GpH7-A5/GpH7-B3 variant G237_04F/GpL16-k0 (antibody, human IgG1, kappa, also called He Ab G237_04F) heavy 1: not shown heavy 2: not shown light: DIVMTQSPLSLPVTPGEPASISCQASESLVHSNRNTYLHWYLQKPGQSPQLLIYKVSNRFSGVPDRFSGSGSGTDFTLKISRVEAEDVGVYYCSQNTHVPPTFGQGTKVEIERTVAAPSVFIFPPSDEQLKSGTASVVCLLNNFYPREAKVQWKVDNALQSGNSQESVTEQDSKDSTYSLSSTLTLSKADYEKHKVYACEVTHQGLSSPVTKSFNRGEC	149 % of control
